As usually defined, the Kd is the free concentration of one partner at which half of the binding sites on the other are occupied at equilibrium, for simple one-to-one binding. A high value points to lower affinity.

In this test the target is T1, OC43 spike S2 subunit extracellular domain with T4 foldon (HCoV-OC43).
T1 chain: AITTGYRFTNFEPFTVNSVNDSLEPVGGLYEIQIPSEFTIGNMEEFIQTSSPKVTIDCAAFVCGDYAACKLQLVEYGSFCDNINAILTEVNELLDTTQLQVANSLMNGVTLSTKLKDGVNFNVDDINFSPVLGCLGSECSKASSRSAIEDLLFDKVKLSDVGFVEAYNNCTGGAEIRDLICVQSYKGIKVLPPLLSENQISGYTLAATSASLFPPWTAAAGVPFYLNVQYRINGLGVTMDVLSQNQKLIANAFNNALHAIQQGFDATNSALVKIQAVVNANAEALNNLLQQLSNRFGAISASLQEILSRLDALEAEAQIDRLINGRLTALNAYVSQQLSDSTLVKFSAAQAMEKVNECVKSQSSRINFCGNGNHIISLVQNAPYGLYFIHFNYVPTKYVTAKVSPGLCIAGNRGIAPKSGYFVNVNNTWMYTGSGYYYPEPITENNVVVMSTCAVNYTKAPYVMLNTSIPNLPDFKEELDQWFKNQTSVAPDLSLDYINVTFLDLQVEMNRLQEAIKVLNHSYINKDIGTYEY
Kind of test: BLI. (BLI is a label-free optical method that tracks binding on a fibre tip over time.)

B1: 1871 Fab (Fab, V domains shown)
VH: EVQLVESGGGLVKPGGSLRLSCVASGFSFSIYSMNWVRQAPGKGLEWVSYISSSSSYKYYADSVKGRFSVSRDNAKNSLYLQLNGLRAEDTAVYYCARDGYCPKGVCTYYGMDVWGQGTTVTVSA
VL: EIVMTQSPATLSVSPGERVTLSCRASQSVRSRLAWFQQKPGQAPRLLIYDASIRATGIPARFSGSGSGTEFTLIISSLQSEDFAVYYCQQYDNWPPAYTFGQGTKLEIK
For B1, the dissociation constant (Kd) is under 1 pM.

The values are drawn from paper PMC12724371 (2025).
